Data: IntAct's records for PubMed 24613396

B1: F-box only protein 11 (Homo sapiens), Q86XK2 (parent)
chain: MNSVRAANRRPRRVSRPRPVQQQQQQPPQQPPPQPPQQQPPQQQPPPPPQQQQQQQPPPPPPPPPPLPQERNNVGERDDDVPADMVAEESGPGAQNSPYQLRRKTLLPKRTACPTKNSMEGASTSTTENFGHRAKRARVSGKSQDLSAAPAEQYLQEKLPDEVVLKIFSYLLEQDLCRAACVCKRFSELANDPILWKRLYMEVFEYTRPMMHPEPGKFYQINPEEYEHPNPWKESFQQLYKGAHVKPGFAEHFYSNPARYKGRENMLYYDTIEDALGGVQEAHFDGLIFVHSGIYTDEWIYIESPITMIGAAPGKVADKVIIENTRDSTFVFMEGSEDAYVGYMTIRFNPDDKSAQHHNAHHCLEITVNCSPIIDHCIIRSTCTVGSAVCVSGQGACPTIKHCNISDCENVGLYITDHAQGIYEDNEISNNALAGIWVKNHGNPIIRRNHIHHGRDVGVFTFDHGMGYFESCNIHRNRIAGFEVKAYANPTVVRCEIHHGQTGGIYVHEKGRGQFIENKIYANNFAGVWITSNSDPTIRGNSIFNGNQGGVYIFGDGRGLIEGNDIYGNALAGIQIRTNSCPIVRHNKIHDGQHGGIYVHEKGQGVIEENEVYSNTLAGVWVTTGSTPVLRRNRIHSGKQVGVYFYDNGHGVLEDNDIYNHMYSGVQIRTGSNPKIRRNKIWGGQNGGILVYNSGLGCIEDNEIFDNAMAGVWIKTDSNPTLRRNKIHDGRDGGICIFNGGRGLLEENDIFRNAQAGVLISTNSHPILRKNRIFDGFAAGIEITNHATATLEGNQIFNNRFGGLFLASGVNVTMKDNKIMNNQDAIEKAVSRGQCLYKISSYTSYPMHDFYRCHTCNTTDRNAICVNCIKKCHQGHDVEFIRHDRFFCDCGAGTLSNPCTLAGEPTHDTDTLYDSAPPIESNTLQHN

Variants of: B1
Details: with prdm1_human PRDM1, O75626
Sequence of prdm1_human PRDM1, O75626 (O75626 whole entry): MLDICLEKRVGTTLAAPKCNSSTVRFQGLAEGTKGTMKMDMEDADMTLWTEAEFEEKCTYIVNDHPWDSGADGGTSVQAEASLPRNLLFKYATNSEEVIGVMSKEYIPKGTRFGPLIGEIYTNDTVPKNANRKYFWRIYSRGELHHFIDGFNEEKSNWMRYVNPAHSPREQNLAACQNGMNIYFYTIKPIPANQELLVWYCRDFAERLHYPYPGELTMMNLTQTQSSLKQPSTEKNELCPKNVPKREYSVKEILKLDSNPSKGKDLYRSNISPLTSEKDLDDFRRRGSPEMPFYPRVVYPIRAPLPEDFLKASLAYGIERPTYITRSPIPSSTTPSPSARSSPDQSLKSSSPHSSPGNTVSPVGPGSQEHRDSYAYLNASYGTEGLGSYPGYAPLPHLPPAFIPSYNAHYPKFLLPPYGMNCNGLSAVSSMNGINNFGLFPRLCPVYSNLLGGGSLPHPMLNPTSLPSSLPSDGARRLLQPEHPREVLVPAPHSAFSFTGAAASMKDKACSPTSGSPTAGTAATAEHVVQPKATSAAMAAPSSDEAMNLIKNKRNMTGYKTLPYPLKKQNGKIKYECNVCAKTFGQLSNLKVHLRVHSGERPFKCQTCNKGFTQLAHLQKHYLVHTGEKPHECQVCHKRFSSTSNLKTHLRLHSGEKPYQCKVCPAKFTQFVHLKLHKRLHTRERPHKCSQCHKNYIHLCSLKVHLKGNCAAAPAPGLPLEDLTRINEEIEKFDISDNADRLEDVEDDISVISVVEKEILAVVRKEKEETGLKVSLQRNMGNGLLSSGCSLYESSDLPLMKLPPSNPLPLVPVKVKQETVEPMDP

effect of a mutation on the interaction	Variant
disrupting interaction strength	Q575L
